Series [1] is described as follows: Assay of GDC-2 acetolactate synthase activity (acetoin colorimetric detection). It is filed as biochemical. Particulars: 50 mM pyruvate, 1 mM TPP, 10 mM MgCl2, 0.01 mM FAD, pH 7.0, 2 hours at 37° C. How it is done:
Acetolactate synthases are decarboxylating enzymes that condense two pyruvate molecules to form acetolactate with the release of a CO2 moiety from one of the pyruvate substrates. In the detection of the enzymatic reaction described by Pang and Duggleby (Pang and Duggleby (1999) Biochemistry 18:5222-5231), the product acetolactate is converted to acetoin by incubation with 1% H2SO4 for 15 minutes at 60° C. followed by neutralization with KOH. The acetoin is then detected as described by Westerfeld (Westerfeld (1945) J. Biol. Chem.161:495-502), using 0.15% creatine and 1.5% alpha-naphthol (dissolved in 2.5 N NaOH). The red colored reaction product is quantified by absorbance at 525 nm.
Samples containing either 5 μg or 10 μg of GDC-2 were incubated in 50 mM pyruvate, 1 mM […] pyrophosphate, 10 mM MgCl2, 0.01 mM Flavin adenine dinucleotide (FAD), 100 mM potassium phosphate buffer pH 7.0 (total reaction volume of 50 μl) for 2 hours at 37° C. The reaction was stopped by the addition of 1 μl of 50% sulfuric acid (H2SO4) and incubated at 60° C. for 15 minutes. The reaction was neutralized by the addition of 30 μl of 1 N KOH followed by the addition of 10 μl of 1.5% creatine and 10 μl of 15% alpha-napthol dissolved in 2.5 N NaOH. The red colored reaction product was quantified by absorbance at 525 nm.

Series [2] deals with ΔaroA E. coli. Briefly: Genetic complementation of aroA mutation in E. coli. The series is classed as cell-based. Particulars: ΔaroA E. coli transformed with pAX473; M63 alone. The source says: The E. coli aroA gene codes for EPSP synthase, the target enzyme for glyphosate. […] However, genes encoding EPSPS activity can restore the ability to grow […] upon aroA mutant E. coli strains. Thus, a test for genetic complementation of an aroA mutant is a highly sensitive method to test if a gene is capable of functioning as an EPSPS in E. coli. Such tests for gene function by genetic complementation are known in the art.
A deletion of the aroA gene was created in E. coli XL-1 MRF′ (Stratagene) by PCR/recombination methods known in the art and outlined by Datsenko and Wanner, (2000) Proc. Natl. Acad. Sci. USA 97:6640-6645. This system is based on the Red system that allows for chromosomal disruptions of targeted sequences. A large portion (1067 nt of the 1283 nt) of the aroA coding region was disrupted by the engineered deletion.
The ability of an EPSPS to complement the mutant phenotype of ΔaroA was confirmed. Clone pAX482, an E. coli expression vector containing the wild-type E. coli aroA gene, was transformed into ΔaroA, and transformed cells were selected. These cells (containing a functional aroA gene residing on a plasmid) were then plated on LB media, M63, and M63 with amino acid supplements. […]

B1: GDC-2: glyphosate resistance-conferring decarboxylase protein (SEQ ID NO:3), acetolactate synthase homologue from strain ATX6837; purified as 6× His-tagged protein (protein)
chain: MLRSRQASKALRALGQARHFTSTTQPAAVQAPRKVASGQRNQATAATATSAAPNVRATPSPAFNAEEQQQQKHSHVQPLVNPQKSDMDESFIGKTGGEIFHEMMLRQGVKHIFGYPGGAILPVFDAIYNSKHFDFILPRHEQGAGHMAEGYARASGKPGVVLVTSGPGATNVVTPMQDALSDGTPLVVFCGQVPTSAIGSDAFQEADVVGISRACTKWNVMVKNVAELPRRINEAFEIATSGRPGPVLVDLPKDVTAGILRRAIPTETALPALPSAASRAAMESSRKHLEHTIKRVADLVNKAKQPVIYAGQGIIQSEGGPELLKELADKASIPVTTTLQGLGGFDELDEKSLHMLGMHGSAYANMAMQEADLIIALGARFDDRVTLNVAKFAPGARAAAAEKRGGIVHFEVMPKNINKVVQATEAVEGNVGSNLKLLLPEVQAKTMDDRKEWFGKINEWKKKWPLSHYERAERHGLIKPQTLIEELSKLTADRKDKTYIATGVGQHQMWTAQHFRWRHPRSMITSGGLGTMGFGLPAAIGAKVAQPDALVFDIDGDASFGMTLTELATAAQFNIGVKVIVLNNEEQGMVTQWQNLFYEDRYAHTHQVNPDFMKLAESMRVQGRRCVDPEDVVDSLKWLINTDGPALLEVVTDKKVPVLPMVPAGSALHEFLVFDGEKDKKRRELMRERTSGLHG
modifications: 6xHis tag; Fungal isolate from soil sample
notes: purified as 6× His-tagged protein
Regarding B1, the “Absorbance 525 nm (acetolactate synthase activity)” value in series [1] (5 μg GDC-2) worked out at 1.99; in series [1] (10 μg GDC-2) it was 3.13. Moreover, the “Complementation of the aroA mutation (growth on M63 minimal media lacking aromatic amino acids)” value in series [2] is “not capable of complementing the aroA mutation”.

Source of the values: US7538262B2, “GDC-2 genes conferring herbicide resistance” (Athenix Corporation, priority 2003, dated 2009).
